Assay results published in paper PMC6763467, “Structural insight into glucose repression of the mannitol operon” (Scientific Reports, 2019).

B1: E. coli MtlR fused with His6-tag (ecHisMtlR), wild type (natural protein)
chain: MVDQAQDTLRPNNRLSDMQATMEQTQAFENRVLERLNAGKTVRSFLITAVELLTEAVNLLVLQVFRKDDYAVKYAVEPLLDGDGPLGDLSVRLKLIYGLGVINRQEYEDAELLMALREELNHDGNEYAFTDDEILGPFGELHCVAALPPPPQFEPADSSLYAMQIQRYQQAVRSTMVLSLTELISKISLKKAFQK
notes: Mannitol operon repressor MtlR of E. coli (cloned from genomic DNA of MG1655, K-12); ecHisMtlR is about 23 kDa with the tag; probably the whole protein (about 23 kDa with tag); Homodimer by SEC-MALS; also called wild-type His-MtlR; ecMtlR

Assays:
[1] = molecular target: the molecule itself; assay: SEC-MALS; Superdex 200 increase 5/150 GL, binding buffer as mobile phase, 0.2 ml/min; HisMtlR alone (40 μg) and in complex with HPr (60 μg); concentration by refractive index
His-MtlR(E108S) [2] = molecular target: T1, His-MtlR(E108S) (E. coli, UniProt P0AF10 1-195, E108S); assay: MST; Monolith NT.115; serial dilutions of MtlR variants mixed 1:1 with NT-647-labelled HPr; 20 mM Tris-HCl pH 7.5, 50 mM NaCl, 2 mM β-mercaptoethanol, 0.05% BSA, 0.05% Tween-20, 5% glycerol; conditions: both partners purified
T1 construct: Mannitol operon repressor MtlR of E. coli, made by site-directed mutagenesis of pET-HisMtlR; also called E108S single mutant
T1 sequence: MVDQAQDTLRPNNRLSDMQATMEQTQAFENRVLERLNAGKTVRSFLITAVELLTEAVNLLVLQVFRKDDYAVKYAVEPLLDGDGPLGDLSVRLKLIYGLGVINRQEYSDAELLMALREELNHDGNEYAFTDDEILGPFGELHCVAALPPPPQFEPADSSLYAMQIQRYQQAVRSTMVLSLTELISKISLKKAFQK

[3] = molecular target: B1; assay: as above; conditions: both partners purified
His-MtlR(E140S) [4] = molecular target: T2, His-MtlR(E140S) (E. coli, UniProt P0AF10 1-195, E140S); assay: as above; conditions: both partners purified
T2 construct: Mannitol operon repressor MtlR of E. coli, made by site-directed mutagenesis of pET-HisMtlR; also called E140S single mutant
T2 sequence: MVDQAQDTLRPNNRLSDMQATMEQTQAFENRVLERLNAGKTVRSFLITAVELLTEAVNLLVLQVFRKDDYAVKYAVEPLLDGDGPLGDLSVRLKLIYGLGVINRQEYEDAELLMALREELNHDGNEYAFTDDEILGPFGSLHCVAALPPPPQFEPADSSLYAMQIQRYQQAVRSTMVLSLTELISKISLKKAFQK

[5] = molecular target: B1; assay: SEC; gel filtration chromatography of purified MtlR and HPr from E. coli and V. vulnificus (Supplementary Fig. 4); conditions: both partners purified
His-MtlR(L112W) = molecular target: T3, His-MtlR(L112W) (E. coli, UniProt P0AF10 1-195, Leu112 was mutated to Trp); assay: pull-down; His-MtlR (200 μg) mixed with HPr (200 μg) in 20 mM Tris-HCl pH 7.5, 50 mM NaCl, 2 mM β-mercaptoethanol, 5% glycerol; Talon metal affinity chromatography, 3 washes with 10 mM imidazole, elution with 150 mM imidazole; SDS-PAGE, Coomassie; conditions: both partners purified
T3 construct: Mannitol operon repressor MtlR of E. coli, made by site-directed mutagenesis of pET-HisMtlR; also called Leu112 mutated to Trp
T3 sequence: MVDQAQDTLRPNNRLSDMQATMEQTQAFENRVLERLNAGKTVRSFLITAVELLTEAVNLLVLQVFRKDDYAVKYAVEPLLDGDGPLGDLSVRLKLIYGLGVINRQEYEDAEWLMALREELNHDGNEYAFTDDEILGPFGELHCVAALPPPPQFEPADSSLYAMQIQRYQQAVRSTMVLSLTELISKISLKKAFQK

His-MtlR(A115W) = molecular target: T4, His-MtlR(A115W) (E. coli, UniProt P0AF10 1-195, A115W); assay: as above; conditions: both partners purified
T4 construct: Mannitol operon repressor MtlR of E. coli, made by site-directed mutagenesis of pET-HisMtlR; also called A115W mutant of His-tagged ecMtlR
T4 sequence: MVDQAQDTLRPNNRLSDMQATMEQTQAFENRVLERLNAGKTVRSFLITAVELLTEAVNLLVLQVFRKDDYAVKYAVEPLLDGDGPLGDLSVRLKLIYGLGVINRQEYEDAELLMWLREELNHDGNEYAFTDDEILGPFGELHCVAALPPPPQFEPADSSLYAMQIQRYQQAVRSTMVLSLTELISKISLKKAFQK

His-MtlR(E140S) [6] = molecular target: T2, His-MtlR(E140S); assay: as above; conditions: both partners purified
His-MtlR(E108S) [7] = molecular target: T1, His-MtlR(E108S); assay: pull-down; His-MtlR (200 μg) mixed with 20 μl of EI-overproducing cell lysate, 200 μg of HPr, 2 mM MgCl2 and 50 μl of Talon resin, in the absence or presence of 2 mM PEP; SDS-PAGE, Coomassie; conditions: both partners purified

With B1 the “stoichiometry N” value [1] was 2.

B2: E. coli HPr labelled with the dye NT-647 (natural protein)
chain: not shown
modifications: dye NT-647 coupled by N-hydroxysuccinimide (NHS) to lysine residues
notes: Histidine phosphocarrier protein HPr of E. coli, 9 kDa; Same protein as m2, fluorescently labelled for microscale thermophoresis; also called labeled HPr; source: E. coli, overexpressed, purified (MonoQ, Superdex 75), then labelled with NT-647-NHS
With B2 the Kd (His-MtlR(E108S) [2]) was 1420 ± 80 nM, the Kd [3] was ~21 nM and the Kd (His-MtlR(E140S) [4]) was 1530 ± 110 nM.

B3: E. coli histidine phosphocarrier protein HPr (dephosphorylated, untagged) (natural protein)
chain: not shown
notes: Histidine phosphocarrier protein HPr of E. coli, 9 kDa; Untagged; probably the whole protein (9 kDa); also called ecHPr; source: E. coli, overexpressed, purified (MonoQ, Superdex 75); for the complex overexpressed in E. coli GI698 harboring pSP100 and co-purified with MtlR
B3: binds [5]; binds (His-MtlR(L112W)); binds (His-MtlR(A115W)). B3: binds (His-MtlR(E140S) [6]); binds (His-MtlR(E108S) [7]).
